Reference: patent US20150118213A1 (OMRIX BIOPHARMACEUTICALS, published 2015)
Bridges are numbered along the chain shown (N, C = ends). Where no end group is shown, it is not given here.

T1: Fluorescein-labeled cyclic gamma-loop derived peptide (disulfide 1-12; also: fluorescein label, site not given here)
T1 construct: also called fluorescent gamma loop peptide
T1 peptide: CKETWTANVGKC

B1: cyclic gamma peptide (peptide)
peptide: CKETWTANVGKC
modifications: disulfide 1-12
B2: linear gamma peptide (SEQ ID NO:1) (peptide)
peptide: KETWTANVGK
B3: Thr_111 (peptide)
peptide: ISMLEKIYIHPRYNW
notes: 15-mer from the thrombin derived peptide array
B4: Thr_032_CS (peptide)
peptide: SGIESQLWRSRYPHK
notes: Thrombin derived 15-mer in which Cysteine residues have been replaced by Serine
B5: Rnd_inter_155 (peptide)
peptide: SHNQRFVTYLGSKLG
notes: 15-mer from the random peptide array; also called Rnd155; Random2
B6: Thr_069 (peptide)
peptide: WCYVAGKPGDFGYCD
notes: 15-mer from the thrombin derived peptide array; also called thrombin derived peptide Thr-069
B7: Thr_136_CS (peptide)
peptide: RIRITDNMFSAGYKP
notes: as for B4
B8: Rnd_inter_316 (peptide)
peptide: LGNKKFVSGSRFVST
notes: 15-mer from the random peptide array; also called Rnd316; Rnd 316
B9: Thr_031_CS (peptide)
peptide: NITRSGIESQLWRSR
notes: as for B4

Molecular target: thrombin (aqueous liquid purified and concentrated thrombin) (UniProt P00734 44-622; P00734 44-622)
Assay: cell-based or functional assay

First: B1
Second: B2
The “inhibition of thrombin clotting activity at 0.5 mM peptide” value of the first is lower: about 7% for the first, about 20% for the second.

Molecular target: T1, Fluorescein-labeled cyclic gamma-loop …
Assay: peptide microarray, immobilised 15-mer probed with fluorescein-labelled cyclic gamma-loop peptide; fluorescence scale 0-65535
Source text: Peptides were synthesized using SPOT synthesis (Wenschuh H, et al. (2000). Coherent membrane supports for parallel microsynthesis and screening of bioactive peptides. Biopolymers 55:188-206) and were chemoselectively immobilized onto functionalized glass slides as described (Panse S, et al. (2004) Profiling of generic anti-phosphopeptide antibodies and kinases with peptide microarrays using radioactive and fluorescence-based assays. Mol Divers 8:291-299.2.). Each peptide was printed in triplicates onto the microarray. For binding studies, 100 ng of purified thrombin (Omrix biopharmaceuticals) were directly labeled with DyLight 650 (DyLight® Microscale Antibody Labeling Kits, Thermo Scientific, #84536) and diluted in blocking buffer (SuperBlockT20 (TBS) Blocking Buffer, Thermo Scientific, #37536). The microarrays were incubated with 10 μg/ml DyLight 650-Thrombin or a Fluorescein-labeled cyclic gamma-loop derived peptide for one hour at 30° C. in a HS4800 microarray processing station (Tecan) (Masch A, et al., (2010) Antibody signatures defined by high-content peptide microarray analysis. Methods Mol Biol 669:161-172).
Microarrays were washed with 0.1% Tween-20 in 1×TBS followed by 0.05% Tween-20 in 0.1×SSC and dried in a stream of nitrogen. Each microarray was scanned using GenePix Autoloader 4200AL (Molecular Devices, Pixel size: 10 μm). Signal intensities were evaluated using spot recognition software Genepix Pro 7.0 analysis software (Molecular Devices). For each peptide, the mean signal intensity of the three triplicates was extracted. Further evaluation and representation of results was performed using the statistical computing and graphics software R (Version 2.11.1, www.r-project.org).
One array included peptides based on the thrombin sequence. Any peptide isolated from this library may reflect possible regions in the thrombin protein that may interact with the gamma loop. […] The fluorescence for the strongest binding candidates (hits) was quantified on an arbitrary scale of 0-65535 (2¹⁶). Thrombin activity was assessed as described in Example 1.

First: B3
Second: B4
The “Binding intensity of gamma loop” value of the first is lower: 32800 arbitrary units for the first, 35100 arbitrary units for the second.

Compared with B5, B6 is higher in “Binding intensity of gamma loop” value: 19500 arbitrary units for the first, 50600 arbitrary units for the second.

Going from B7 to B8, the “Binding intensity of gamma loop” value rises from 25300 arbitrary units to 26600 arbitrary units.

For B9, the “Binding intensity of gamma loop” value was 40800 arbitrary units.
